Measured values: patent US20240034796A1 (GENUV, published 2024)

T1: mouse PD-1 expressed on CHO-S cells (mouse, UniProt Q02242 25-288)
T1 construct: whole, on cells; also called cell surface mouse PD-1; mPD-1
T1 sequence (looked up): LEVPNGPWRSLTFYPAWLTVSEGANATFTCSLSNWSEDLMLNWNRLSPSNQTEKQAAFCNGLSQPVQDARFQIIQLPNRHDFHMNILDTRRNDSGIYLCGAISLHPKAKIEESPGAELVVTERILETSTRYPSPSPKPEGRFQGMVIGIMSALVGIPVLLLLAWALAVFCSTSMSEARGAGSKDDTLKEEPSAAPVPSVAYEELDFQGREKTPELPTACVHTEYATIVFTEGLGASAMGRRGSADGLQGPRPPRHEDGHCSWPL

T2: human ICOS protein (human, UniProt Q9Y6W8 21-140)
T2 sequence (looked up): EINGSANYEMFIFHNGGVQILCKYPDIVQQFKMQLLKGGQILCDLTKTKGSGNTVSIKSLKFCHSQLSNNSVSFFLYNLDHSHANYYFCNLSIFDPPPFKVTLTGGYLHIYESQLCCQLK


Tests used:
[1] = biological target: T3, human PD-1 expressed on CHO-S cells (human, UniProt Q15116 25-288); test: cell-based ELISA on CHO-S cells expressing human PD-1
T3 construct: CHO-S cells transfected with pCMV3-C-FLAG vector (Sino) holding human PD-1 cDNA; also called cell surface human PD-1; hPD-1
T3 sequence (Q15116 25-288 limits assumed): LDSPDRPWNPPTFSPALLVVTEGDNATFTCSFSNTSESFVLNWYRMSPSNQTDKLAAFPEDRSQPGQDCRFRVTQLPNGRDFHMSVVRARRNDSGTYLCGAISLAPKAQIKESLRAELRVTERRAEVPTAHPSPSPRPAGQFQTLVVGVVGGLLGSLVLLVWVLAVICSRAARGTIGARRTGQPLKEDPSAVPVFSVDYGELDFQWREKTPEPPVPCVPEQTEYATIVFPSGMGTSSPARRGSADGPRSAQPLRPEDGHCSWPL
Description: (§1) To summarize the ELISA analysis, 10,000 CHO-S cells expressing either human PD-1 or mouse PD-1 were coated in a collagen-coated 96-well plate (Thermo scientific) overnight in an incubator at 37° C. The coated cells were fixed with 8% paraformaldehyde at room temperature for 15 minutes.
(§2) After washing, a secondary antibody was added and incubated overnight at 4° C. […] After washing, TMB substrate (abcam) was added, and the color reaction was stopped with STOP solution (abcam). Absorbance at 450/650 nm was measured using a microplate reader (ThermoFisher).

[2] = biological target: T3, human PD-1 expressed on CHO-S cells; test: cell-based ELISA on fixed CHO-S cells expressing human PD-1
human PD-1 protein [3] = biological target: T4, human PD-1 protein (human, UniProt Q15116 25-167, limits assumed); test: SPR, Biacore 8K, antibody captured on Protein A chip, human PD-1 as analyte
T4 construct: also called human PD-1 antigen
T4 sequence (Q15116 25-167 limits assumed): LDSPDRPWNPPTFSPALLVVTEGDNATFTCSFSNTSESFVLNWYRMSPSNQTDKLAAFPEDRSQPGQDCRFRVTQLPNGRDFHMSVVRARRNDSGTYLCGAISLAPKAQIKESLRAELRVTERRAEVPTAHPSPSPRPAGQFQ

human PD-1 protein [4] = biological target: T4, human PD-1 protein; test: SPR, Biacore 8K, antibody captured on Protein A chip, human PD-1 as analyte, pH 7.4
human PD-1 protein [5] = biological target: T4, human PD-1 protein; test: SPR, Biacore 8K, antibody captured by anti-human IgG on CM5, human PD-1 as analyte
Description: Anti-human IgG antibody was immobilized on a CM5 chip (Cytiva) via amine coupling. […] Human PD-1 and running buffer at a concentration of 0-100 nM (0, 6.25, 12.5, 25, 50, 100 nM) were flowed onto the sensor chip at a flow rate of 30 μl/min for an association phase of 120 s, which was followed by a dissociation phase of 900 s. The chip was regenerated with glycine at pH 1.5 after each experiment. Association and dissociation curves were drawn using Cytiva evaluation software, and kinetics and affinity values were determined.

[6] = biological target: T1, mouse PD-1 expressed on CHO-S cells; test: cell-based ELISA on CHO-S cells expressing mouse PD-1
Description: as §1, §2

human BTLA protein = human BTLA protein (human, UniProt Q7Z6A9 31-157, limits assumed); test: protein-based ELISA, coated human BTLA, hybridoma supernatant
Description: (§3) Human PD-1, CD28, CTLA-4, ICOS, and BTLA proteins were coated in 96-well plates (Nunc) overnight at 4° C. […] After washing, a secondary antibody was added and incubated at 37° C. for 2 hours. […] After washing, TMB substrate (abcam) was added, and the color reaction was stopped with STOP solution (abcam). Absorbance at 450/650 nm was measured using a microplate reader (ThermoFisher).

human CD28 protein = human CD28 protein (human, UniProt P10747 19-152); test: protein-based ELISA, coated human CD28, hybridoma supernatant
Description: as §3

human ICOS protein = biological target: T2, human ICOS protein; test: protein-based ELISA, coated human ICOS, hybridoma supernatant
Description: as §3

human CTLA-4 protein = human CTLA-4 protein (human, UniProt P16410 36-161); test: protein-based ELISA, coated human CTLA-4, hybridoma supernatant
Chain of human CTLA-4 protein (P16410 36-161 limits assumed): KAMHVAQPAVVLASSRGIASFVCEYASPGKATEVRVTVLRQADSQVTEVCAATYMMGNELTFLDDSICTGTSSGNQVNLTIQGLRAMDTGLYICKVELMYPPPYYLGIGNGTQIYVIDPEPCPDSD
Description: as §3

[7] = biological target: T3, human PD-1 expressed on CHO-S cells; test: cell-based ELISA on CHO-S cells expressing human PD-1; EC50 against Keytruda and Opdivo
Description: as §1, §2

[8] = biological target: T3, human PD-1 expressed on CHO-S cells; test: cell-based ELISA on fixed CHO-S cells expressing human PD-1, hybridoma supernatant
Description: (§4) To summarize the ELISA assay, 10,000 CHO-S cells expressing human or mouse PD-1 were coated in collagen-coated 96-well plates (ThermoFisher) overnight at 37° C. The coated cells were fixed with 8% paraformaldehyde at room temperature for 15 minutes. […] After washing, secondary antibody was added and incubated overnight at 4° C. […] After washing, TMB substrate (abcam) was added, and the color reaction was stopped with STOP solution (abcam). Absorbance at 450/650 nm was measured using a microplate reader (ThermoFisher).

[9] = biological target: T1, mouse PD-1 expressed on CHO-S cells; test: cell-based ELISA on fixed CHO-S cells expressing mouse PD-1, hybridoma supernatant
Description: as §4

[10] = biological target: T5, human PD-1 with P130 mutated to alanine (human, UniProt Q15116 25-288, limits assumed); test: alanine scanning, high-throughput flow cytometry
T5 construct: Alanine scanning mutant, expressed and analysed by high-throughput flow cytometry; the construct is not described further
T5 sequence (Q15116 other isoform, or with tags, fused parts or gaps limits assumed, change not shown): as the sequence (Q15116 25-288 limits assumed) above, with P106A counted along it
Description: (§5) Selected amino acid residues of PD-1 were mutated to alanine using PCR mutagenesis.

[11] = biological target: T6, human PD-1 with L128 mutated to alanine (human, UniProt Q15116 25-288, limits assumed); test: alanine scanning, high-throughput flow cytometry
T6 construct: Alanine scanning mutant, expressed and analysed by high-throughput flow cytometry; the construct is not described further
T6 sequence (Q15116 other isoform, or with tags, fused parts or gaps limits assumed, change not shown): as the sequence (Q15116 25-288 limits assumed) above, with L104A counted along it
Description: as §5

[12] = biological target: T7, human PD-1 with I126 mutated to alanine (human, UniProt Q15116 25-288, limits assumed); test: alanine scanning, high-throughput flow cytometry
T7 construct: Alanine scanning mutant, expressed and analysed by high-throughput flow cytometry; the construct is not described further
T7 sequence (Q15116 other isoform, or with tags, fused parts or gaps limits assumed, change not shown): as the sequence (Q15116 25-288 limits assumed) above, with I102A counted along it
Description: as §5

EC50 [1]	EC50 (read off the curve) [2]	Kd (human PD-1 protein [3])	Kd (human PD-1 protein [4])	Kd (human PD-1 protein [5])	EC50 [6]	binding result (human BTLA protein)	binding result (human CD28 protein)	binding result (human ICOS protein)	binding result (human CTLA-4 protein)	fold improved binding activity compared to Keytruda and Opdivo [7]	EC50 (read off the curve) [8]	EC50 (read off the curve) [9]	binding activity relative to the wild-type antigen [10]	binding activity relative to the wild-type antigen [11]	binding activity relative to the wild-type antigen [12]	koff (human PD-1 protein [5])	kon (human PD-1 protein [5])	Molecule
0.154 nM	0.05 µg/mL	7.06 nM	6.6 nM	6.33 nM														Keytruda (antibody)
0.0281 nM					0.0317 nM	no binding	no binding	no binding	no binding	~5 fold	~0.01 µg/mL	~0.01 µg/mL						hybridoma 1G1 antibody (antibody, V domains shown, Mouse antibody from the hybridoma, used as culture supernatant or Protein G purified; IgG1 reverse primer used for VH); also called 1G1 hybridoma antibody; monoclonal cell (hybridoma) 1G1 antibody) VH: EVQLQQSGAELVKPGASVKLSCKASGYTFTGYWMHWVKQRPGQGLEWIGMIHPNSDTTTYNEKFKNRATLTVDKSSGTAYMQLSSLTSEDSAVYYCTGTDQAAWFAFWGQGTLVTVSA VL: DIVLTQTPLSLPVSLGDQASISCRSSQNIVHSNGDTYLEWYLQKPGQSPKLLIYKVSKRFSGVPDRFSGSGSGTDFTLKISRVEAEDLGVYYCFQGSHVPWTFGGGTKLEIK
				3.35 nM									≤ 50%	≤ 50%	≤ 50%	0.000749 s⁻¹	223000 M⁻¹ s⁻¹	chimeric 1G1 antibody (antibody, human IgG4 S228P, kappa, V domains shown, signal peptide not part of the entries; also called 1G1 chimeric; 1G1-chimeric) VH: EVQLQQSGAELVKPGASVKLSCKASGYTFTGYWMHWVKQRPGQGLEWIGMIHPNSDTTTYNEKFKNRATLTVDKSSGTAYMQLSSLTSEDSAVYYCTGTDQAAWFAFWGQGTLVTVSA VL: DIVLTQTPLSLPVSLGDQASISCRSSQNIVHSNGDTYLEWYLQKPGQSPKLLIYKVSKRFSGVPDRFSGSGSGTDFTLKISRVEAEDLGVYYCFQGSHVPWTFGGGTKLEIKR
